According to article PMC3290704 (2012):

How the values were obtained:
p53 AD1 13-37 [1] = target: T1, p53 AD1 13-37 (Homo sapiens, UniProt P04637); experiment: NMR HSQC titration, local fit SVD
p53 AD1 13-37 [2] = target: T1, p53 AD1 13-37; experiment: NMR HSQC titration, local fit raw
p53 AD1 13-37 [3] = target: T1, p53 AD1 13-37; experiment: NMR HSQC titration, global fit SVD
p53 AD1 13-37 [4] = target: T1, p53 AD1 13-37; experiment: NMR HSQC titration, local fit raw; remark: listed apart in the source
p53 AD1 13-37 [5] = target: T1, p53 AD1 13-37; experiment: NMR HSQC titration, local fit SVD; remark: listed apart in the source
p53 AD1 13-37 [6] = target: T1, p53 AD1 13-37; experiment: NMR HSQC titration, global fit raw
p53 AD1 13-37 [7] = target: T1, p53 AD1 13-37; experiment: NMR HSQC titration, local fit raw with concentration correction

T1 sequence (P04637 13-37): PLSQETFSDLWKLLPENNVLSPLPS

Kd (p53 AD1 13-37 [1]): 33 µM
Kd (p53 AD1 13-37 [2]): 27 µM
Kd (p53 AD1 13-37 [3]): 32 µM
Kd (p53 AD1 13-37 [4]): 448 µM
Kd (p53 AD1 13-37 [5]): 225 µM
Kd (p53 AD1 13-37 [6]): 180 µM
Kd (p53 AD1 13-37 [7]): 345 µM
B1: CBP TAZ2 1764-1855 (protein)
chain: SPQESRRLSIQRCIQSLVHACQCRNANCSLPSCQKMKRVVQHTKGCKRKTNGGCPVCKQLIALCCYHAKHCQENKCPVPFCLNIKHKLRQQQ
